Experimental data as given in patent CN114349860A (SHENZHEN GUEN BIOTECHNOLOGY CO LTD, dated 2022).

Molecular target: T1, FGFR4蛋白 (FGFR4 protein antigen, bought from Sino Biological / 义翘神州) (human, UniProt P22455 22-369, limits assumed)
T1 construct: also called FGFR4蛋白抗原; 成纤维细胞生长因子受体4
T1 sequence (looked up): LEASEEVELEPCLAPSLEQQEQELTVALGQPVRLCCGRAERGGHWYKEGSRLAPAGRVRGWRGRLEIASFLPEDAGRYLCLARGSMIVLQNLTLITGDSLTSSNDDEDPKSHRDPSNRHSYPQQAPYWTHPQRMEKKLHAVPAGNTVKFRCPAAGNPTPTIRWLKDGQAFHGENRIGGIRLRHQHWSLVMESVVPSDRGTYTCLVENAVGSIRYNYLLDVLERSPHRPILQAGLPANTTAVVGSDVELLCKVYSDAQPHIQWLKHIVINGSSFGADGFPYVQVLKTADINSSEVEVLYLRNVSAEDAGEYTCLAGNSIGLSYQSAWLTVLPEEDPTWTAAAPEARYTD
Assay: BLI (OCTET K2), FGFR4 protein 10 ug/mL loaded on AHC sensors, 1B5 at 566.7-8.84 nM in solution

B1: 抗成纤维细胞生长因子受体4单克隆抗体1B5 (antibody, V domains shown)
VH: EVMLVQSGPELKKPGETVKISCKASGYTFTNFGMNWVKQAPGKGLKWMGWINTYTGEPTYADDFKGRFVFSLETSASTAYLQINNLKNEDTATYLCVRSSSGYVFDYWGQGTIVTVG
VL: DIVMTQSPSSLAVSAGEKVTMSCKSSQSLLNSRTRKNYLAWYQQKPGQSPKLLIYWASTRESGVPDRFTGSGSGTDFTLTISSVQAEDLAVYYCKQSYNLLTFGEGTKLEIT
notes: Mouse hybridoma antibody (BALB/c), purified from ascites on Protein G and detected with anti-mouse IgG second antibodies; also called 1B5抗体; FGFR4单克隆抗体
  Kd: < 1 pM
